According to patent US20060018906A1:

Target: human tumor necrosis factor-α (TNFα) (human) (UniProt P01375)
Assay: cell-based or functional assay

human tumor necrosis factor-α (TNFα) (human), sequence (P01375 77-233): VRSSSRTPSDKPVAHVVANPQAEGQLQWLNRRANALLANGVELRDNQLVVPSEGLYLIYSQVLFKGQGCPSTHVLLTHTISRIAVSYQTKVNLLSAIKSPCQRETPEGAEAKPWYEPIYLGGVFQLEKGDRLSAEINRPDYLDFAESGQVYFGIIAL

B1: chimeric mouse/human IgG1 anti-platelet mAb (7E3) (antibody, INN chains, looked up, V domains shown)
VH: EVQLQQSGTVLARPGASVKMSCEASGYTFTNYWMHWVKQRPGQGLEWIGAIYPGNSDTSYIQKFKGKAKLTAVTSTTSVYMELSSLTNEDSAVYYCTLYDGYYVFAYWGQGTLVTVSA
VL: EIVLTQSPVTLSVTPGDSVSLSCRASRDISNNLHWFQQTSHESPRLLIKYASQSMSGIPSRFSGSGSGTDFTLSINSVETEDFGMYFCQQTNSWPYTFGGGTKLEIK
modifications: IgG1
In the case of B1, the IL-6 concentration in FS-4 fibroblast supernatant; rhTNF 0.3 ng/ml, antibody 4 µg/ml is reported as 1.6 ng/mL, the IL-6 concentration in FS-4 fibroblast supernatant; rhTNF 1.5 ng/ml, antibody 4 µg/ml is reported as 1.96 ng/mL and the IL-6 concentration in FS-4 fibroblast supernatant; rhTNF 7.5 ng/ml, antibody 4 µg/ml is reported as 2.16 ng/mL.
